Data on 11 substances can be found in IntAct's records for PubMed 25910212.

Some targets named below: tfcp2_human TFCP2 (UniProt Q12800); syce1_human SYCE1 (UniProt Q8N0S2); md1l1_human MAD1L1 (UniProt Q9Y6D9); goga2_human GOLGA2 (UniProt Q08379); tfpt_human TFPT (UniProt P0C1Z6); kxdl1_human KXD1 (UniProt Q9BQD3); mdfi_human MDFI (UniProt Q99750); kra32_human KRTAP3-2 (UniProt Q9BYR7); lzts2_human LZTS2 (UniProt Q9BRK4); trip6_human TRIP6 (UniProt Q15654).
The target in assay [1] is T1, tmm79_human TMEM79 (UniProt Q9BSE2).
T1 sequence: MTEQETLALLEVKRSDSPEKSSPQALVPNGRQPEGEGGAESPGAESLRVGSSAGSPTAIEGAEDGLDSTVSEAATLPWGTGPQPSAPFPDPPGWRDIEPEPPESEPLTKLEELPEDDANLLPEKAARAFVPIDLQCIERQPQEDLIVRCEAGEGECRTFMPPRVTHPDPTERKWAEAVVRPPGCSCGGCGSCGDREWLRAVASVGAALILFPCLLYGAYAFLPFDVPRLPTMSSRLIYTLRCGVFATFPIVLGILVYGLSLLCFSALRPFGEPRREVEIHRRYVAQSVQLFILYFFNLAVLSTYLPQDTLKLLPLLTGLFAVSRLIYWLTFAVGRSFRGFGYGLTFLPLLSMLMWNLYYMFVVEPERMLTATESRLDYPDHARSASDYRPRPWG

The target of assay [2] is T2, smim3_human SMIM3 (UniProt Q9BZL3).
T2 sequence: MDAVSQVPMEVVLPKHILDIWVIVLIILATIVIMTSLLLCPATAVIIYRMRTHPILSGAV

Assay [3] addresses T1, tmm79_human TMEM79. The source holds these as a separate data set.
The target of another assay is T3, SYNE4, Q8N205-2.
T3 sequence: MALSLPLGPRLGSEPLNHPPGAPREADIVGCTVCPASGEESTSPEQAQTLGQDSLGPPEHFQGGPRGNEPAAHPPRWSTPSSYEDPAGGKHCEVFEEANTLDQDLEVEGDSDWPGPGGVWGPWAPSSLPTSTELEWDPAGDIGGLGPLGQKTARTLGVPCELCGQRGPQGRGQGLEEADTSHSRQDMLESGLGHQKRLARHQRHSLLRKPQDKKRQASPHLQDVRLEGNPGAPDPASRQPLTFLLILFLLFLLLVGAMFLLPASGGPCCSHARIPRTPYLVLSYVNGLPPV

The target of assay [4] is T2, smim3_human SMIM3. The source holds these as a separate data set.
The next assay has as its target T4, efhc2_human EFHC2 (UniProt Q5JST6).
T4 sequence: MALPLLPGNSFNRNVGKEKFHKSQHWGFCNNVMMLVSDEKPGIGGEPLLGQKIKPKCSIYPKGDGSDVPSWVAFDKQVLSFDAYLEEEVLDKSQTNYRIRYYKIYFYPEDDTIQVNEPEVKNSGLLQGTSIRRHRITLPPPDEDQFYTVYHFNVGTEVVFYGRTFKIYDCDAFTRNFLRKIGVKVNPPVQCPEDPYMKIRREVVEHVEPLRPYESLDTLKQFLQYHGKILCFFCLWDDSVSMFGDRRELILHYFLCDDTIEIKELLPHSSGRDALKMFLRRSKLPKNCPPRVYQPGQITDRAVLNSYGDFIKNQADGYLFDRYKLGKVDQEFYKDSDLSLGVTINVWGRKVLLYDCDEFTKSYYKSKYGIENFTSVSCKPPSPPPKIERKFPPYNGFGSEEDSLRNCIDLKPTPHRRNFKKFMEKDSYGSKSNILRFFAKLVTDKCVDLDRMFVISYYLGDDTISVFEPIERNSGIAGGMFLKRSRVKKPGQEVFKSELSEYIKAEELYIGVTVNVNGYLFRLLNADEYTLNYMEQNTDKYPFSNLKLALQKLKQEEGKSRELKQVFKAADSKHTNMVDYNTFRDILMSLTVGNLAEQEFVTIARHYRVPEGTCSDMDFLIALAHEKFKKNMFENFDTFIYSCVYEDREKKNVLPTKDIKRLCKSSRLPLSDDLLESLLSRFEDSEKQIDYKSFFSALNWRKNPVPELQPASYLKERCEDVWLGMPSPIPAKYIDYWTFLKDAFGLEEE

Assay [5] addresses cof2_human CFL2 (UniProt Q9Y281).
The target of assay [6] is cap2_human CAP2 (UniProt P40123).
Assay [7] deals with ifit3_human IFIT3 (UniProt O14879).
Assay [8] shares this target. The source holds these as a separate data set.
Assay [9] has as its target cap2_human CAP2 (UniProt P40123). The source holds these as a separate data set.
For assay [10], the target named is cof2_human CFL2 (UniProt Q9Y281). The source holds these as a separate data set.
The target in assay [11] is cap2_human CAP2 (UniProt P40123). The source holds these as a separate data set.

Sequence of Erythroid transcription factor (Homo sapiens), P15976-2 V205M (P15976 other isoform, or with tags, fused parts or gaps V205M): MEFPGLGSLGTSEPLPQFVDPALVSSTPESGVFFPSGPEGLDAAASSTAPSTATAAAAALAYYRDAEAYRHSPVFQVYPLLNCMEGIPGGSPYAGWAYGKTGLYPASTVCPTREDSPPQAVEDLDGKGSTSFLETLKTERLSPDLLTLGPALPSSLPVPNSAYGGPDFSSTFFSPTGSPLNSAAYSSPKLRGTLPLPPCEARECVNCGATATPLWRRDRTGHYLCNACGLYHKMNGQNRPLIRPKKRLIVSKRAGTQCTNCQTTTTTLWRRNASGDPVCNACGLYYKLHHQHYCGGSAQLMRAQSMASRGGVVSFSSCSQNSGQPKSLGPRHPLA
Sequence of Tropomyosin alpha-1 chain (Homo sapiens), P09493-10 E40K (P09493 other isoform, or with tags, fused parts or gaps E40K): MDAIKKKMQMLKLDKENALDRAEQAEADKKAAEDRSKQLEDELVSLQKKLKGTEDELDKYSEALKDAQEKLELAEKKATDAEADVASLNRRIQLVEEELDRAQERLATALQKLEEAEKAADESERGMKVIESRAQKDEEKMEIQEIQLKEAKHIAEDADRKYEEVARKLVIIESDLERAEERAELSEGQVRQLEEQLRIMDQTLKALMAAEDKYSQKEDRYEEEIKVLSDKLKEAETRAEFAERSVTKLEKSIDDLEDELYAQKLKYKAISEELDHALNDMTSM
Sequence of ifit3_human IFIT3 (O14879 whole entry): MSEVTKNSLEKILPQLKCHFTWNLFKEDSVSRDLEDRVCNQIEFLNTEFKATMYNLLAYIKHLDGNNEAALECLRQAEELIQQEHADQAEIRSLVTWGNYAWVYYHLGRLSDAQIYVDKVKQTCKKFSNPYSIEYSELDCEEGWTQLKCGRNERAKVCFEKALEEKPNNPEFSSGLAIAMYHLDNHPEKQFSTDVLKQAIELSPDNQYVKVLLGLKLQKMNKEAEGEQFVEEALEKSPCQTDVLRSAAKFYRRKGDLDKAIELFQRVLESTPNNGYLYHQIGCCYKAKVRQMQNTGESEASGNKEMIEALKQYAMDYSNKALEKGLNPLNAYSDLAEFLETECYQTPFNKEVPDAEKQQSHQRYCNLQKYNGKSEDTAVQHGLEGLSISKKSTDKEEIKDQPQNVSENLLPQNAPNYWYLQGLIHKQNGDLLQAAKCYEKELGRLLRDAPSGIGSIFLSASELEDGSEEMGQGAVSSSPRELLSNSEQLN
Sequence of tfcp2_human TFCP2 (Q12800 whole entry): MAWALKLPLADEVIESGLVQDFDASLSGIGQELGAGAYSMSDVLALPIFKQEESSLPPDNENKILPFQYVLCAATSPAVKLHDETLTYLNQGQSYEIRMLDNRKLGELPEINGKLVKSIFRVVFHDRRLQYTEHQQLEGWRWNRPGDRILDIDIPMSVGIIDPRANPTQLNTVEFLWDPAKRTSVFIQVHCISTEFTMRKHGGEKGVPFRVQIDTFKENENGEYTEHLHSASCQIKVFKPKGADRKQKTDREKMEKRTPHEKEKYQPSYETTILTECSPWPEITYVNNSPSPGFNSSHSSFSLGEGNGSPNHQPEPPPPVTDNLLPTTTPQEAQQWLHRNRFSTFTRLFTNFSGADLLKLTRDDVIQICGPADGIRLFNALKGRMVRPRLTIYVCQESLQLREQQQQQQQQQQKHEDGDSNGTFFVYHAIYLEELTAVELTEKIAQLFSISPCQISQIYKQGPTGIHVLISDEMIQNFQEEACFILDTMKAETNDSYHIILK
Sequence of lzts2_human LZTS2 (Q9BRK4 whole entry): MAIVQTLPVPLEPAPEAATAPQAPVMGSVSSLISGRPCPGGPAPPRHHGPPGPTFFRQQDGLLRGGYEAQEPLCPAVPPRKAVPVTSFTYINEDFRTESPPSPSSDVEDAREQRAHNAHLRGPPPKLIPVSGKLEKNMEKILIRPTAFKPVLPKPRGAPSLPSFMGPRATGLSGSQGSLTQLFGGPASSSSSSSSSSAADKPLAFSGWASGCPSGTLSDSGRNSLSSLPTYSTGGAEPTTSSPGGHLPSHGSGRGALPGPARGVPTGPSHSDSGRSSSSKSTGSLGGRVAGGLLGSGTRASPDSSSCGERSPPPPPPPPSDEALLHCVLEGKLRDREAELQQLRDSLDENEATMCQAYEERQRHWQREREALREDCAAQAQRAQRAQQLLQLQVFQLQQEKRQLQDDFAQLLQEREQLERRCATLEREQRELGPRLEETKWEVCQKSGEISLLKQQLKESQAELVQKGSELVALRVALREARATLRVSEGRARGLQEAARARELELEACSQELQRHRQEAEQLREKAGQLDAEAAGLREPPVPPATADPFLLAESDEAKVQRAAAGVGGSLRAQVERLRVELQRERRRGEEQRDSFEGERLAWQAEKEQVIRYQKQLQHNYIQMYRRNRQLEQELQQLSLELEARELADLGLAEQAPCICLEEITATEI
Sequence of kxdl1_human KXD1 (Q9BQD3 whole entry): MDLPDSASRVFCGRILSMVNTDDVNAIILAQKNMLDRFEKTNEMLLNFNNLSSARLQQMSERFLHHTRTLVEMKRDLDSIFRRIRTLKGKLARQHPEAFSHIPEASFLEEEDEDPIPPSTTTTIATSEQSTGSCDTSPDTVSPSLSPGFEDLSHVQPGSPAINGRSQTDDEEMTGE
Sequence of Carbonic anhydrase 1 (Homo sapiens), P00915 H68R (P00915 whole entry H68R): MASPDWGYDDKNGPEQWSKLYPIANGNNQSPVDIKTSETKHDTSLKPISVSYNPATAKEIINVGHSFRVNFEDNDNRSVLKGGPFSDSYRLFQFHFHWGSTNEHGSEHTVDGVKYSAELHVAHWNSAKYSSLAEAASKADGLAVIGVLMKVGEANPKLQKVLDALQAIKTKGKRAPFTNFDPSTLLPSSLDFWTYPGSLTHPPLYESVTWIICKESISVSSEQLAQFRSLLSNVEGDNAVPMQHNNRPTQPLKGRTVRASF
Sequence of syce1_human SYCE1 (Q8N0S2 whole entry): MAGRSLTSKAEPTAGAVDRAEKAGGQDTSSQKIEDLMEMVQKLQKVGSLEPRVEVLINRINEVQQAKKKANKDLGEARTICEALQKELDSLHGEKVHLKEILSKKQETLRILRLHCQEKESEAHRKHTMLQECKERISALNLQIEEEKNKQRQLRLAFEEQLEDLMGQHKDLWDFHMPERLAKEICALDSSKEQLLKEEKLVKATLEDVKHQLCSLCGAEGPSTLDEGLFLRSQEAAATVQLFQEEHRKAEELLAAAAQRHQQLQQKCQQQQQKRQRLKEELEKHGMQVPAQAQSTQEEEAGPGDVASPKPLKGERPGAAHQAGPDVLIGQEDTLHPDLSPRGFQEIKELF
Sequence of tfpt_human TFPT (P0C1Z6 whole entry): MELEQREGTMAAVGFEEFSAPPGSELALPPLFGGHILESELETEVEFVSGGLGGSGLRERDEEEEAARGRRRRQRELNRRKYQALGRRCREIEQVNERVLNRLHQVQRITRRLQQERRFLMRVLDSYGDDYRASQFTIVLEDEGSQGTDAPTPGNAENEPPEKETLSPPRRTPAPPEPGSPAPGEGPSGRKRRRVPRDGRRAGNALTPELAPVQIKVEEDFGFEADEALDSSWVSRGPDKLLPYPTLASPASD
Sequence of trip6_human TRIP6 (Q15654 whole entry): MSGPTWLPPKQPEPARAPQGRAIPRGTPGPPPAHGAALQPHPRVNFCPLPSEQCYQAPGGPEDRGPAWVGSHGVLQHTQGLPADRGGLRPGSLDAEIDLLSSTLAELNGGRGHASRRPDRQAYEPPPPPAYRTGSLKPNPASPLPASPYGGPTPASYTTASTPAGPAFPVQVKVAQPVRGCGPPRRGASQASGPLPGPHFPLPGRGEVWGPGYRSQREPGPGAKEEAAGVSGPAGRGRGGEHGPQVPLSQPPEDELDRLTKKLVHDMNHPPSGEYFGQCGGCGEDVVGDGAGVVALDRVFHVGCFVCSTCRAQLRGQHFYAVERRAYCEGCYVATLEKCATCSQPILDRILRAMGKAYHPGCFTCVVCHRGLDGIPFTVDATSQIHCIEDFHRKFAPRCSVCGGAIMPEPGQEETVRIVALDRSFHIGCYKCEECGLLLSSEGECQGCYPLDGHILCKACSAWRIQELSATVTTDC
Sequence of md1l1_human MAD1L1 (Q9Y6D9 whole entry): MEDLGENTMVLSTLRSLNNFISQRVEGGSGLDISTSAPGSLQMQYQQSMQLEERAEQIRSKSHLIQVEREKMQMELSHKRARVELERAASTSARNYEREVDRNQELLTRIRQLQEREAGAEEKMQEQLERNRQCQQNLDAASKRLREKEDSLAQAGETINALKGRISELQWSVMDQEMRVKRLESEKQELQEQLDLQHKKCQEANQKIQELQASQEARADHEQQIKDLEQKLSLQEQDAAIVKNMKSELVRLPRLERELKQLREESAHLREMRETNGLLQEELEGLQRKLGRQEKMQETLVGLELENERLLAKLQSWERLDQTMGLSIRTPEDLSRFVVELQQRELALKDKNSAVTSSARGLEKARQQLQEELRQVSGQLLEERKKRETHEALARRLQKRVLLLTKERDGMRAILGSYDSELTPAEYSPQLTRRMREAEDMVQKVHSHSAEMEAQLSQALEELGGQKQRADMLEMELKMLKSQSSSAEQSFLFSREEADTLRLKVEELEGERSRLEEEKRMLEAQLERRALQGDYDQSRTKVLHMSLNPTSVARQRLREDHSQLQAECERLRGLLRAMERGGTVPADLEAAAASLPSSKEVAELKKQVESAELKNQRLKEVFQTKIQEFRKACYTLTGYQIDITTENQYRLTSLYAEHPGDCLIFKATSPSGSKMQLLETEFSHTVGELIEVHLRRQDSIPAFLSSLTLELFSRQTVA
Sequence of TNNT1, P13805-3 (P13805 other isoform, or with tags, fused parts or gaps): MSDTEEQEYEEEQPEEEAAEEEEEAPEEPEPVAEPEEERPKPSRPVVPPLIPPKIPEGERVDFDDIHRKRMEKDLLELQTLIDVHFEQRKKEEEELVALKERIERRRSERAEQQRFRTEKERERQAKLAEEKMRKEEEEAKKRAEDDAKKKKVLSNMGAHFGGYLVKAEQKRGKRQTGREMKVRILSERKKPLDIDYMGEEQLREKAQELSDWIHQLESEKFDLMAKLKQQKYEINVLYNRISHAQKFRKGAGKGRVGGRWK
Sequence of kra32_human KRTAP3-2 (Q9BYR7 whole entry): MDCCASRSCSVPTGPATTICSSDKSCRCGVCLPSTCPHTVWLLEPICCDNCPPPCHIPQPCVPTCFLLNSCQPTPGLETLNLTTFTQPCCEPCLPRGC

For “Carbonic anhydrase 1 (Homo sapiens), P00915 H68R”, the “effect of a mutation on the interaction” value in the assay with tfcp2_human TFCP2 is recorded as “with no effect”.
Consider “Surfactant protein C (Homo sapiens) (from UniProt P11686) Y104H”, for which the “effect of a mutation on the interaction” value with tmm79_human TMEM79 [1] is on record as “with no effect”; with smim3_human SMIM3 [2] it was “causing an interaction”; in the assay with tmm79_human TMEM79 [3] it was “disrupting interaction strength”; in the assay with SYNE4, Q8N205-2 it was “with no effect”; with smim3_human SMIM3 [4], “with no effect”.
In the case of “Surfactant protein C (Homo sapiens) (from UniProt P11686) C189G”, the “effect of a mutation on the interaction” value in the assay with tmm79_human TMEM79 [1] is given as “with no effect”; with smim3_human SMIM3 [2] it was “causing an interaction”; in the assay with tmm79_human TMEM79 [3], “disrupting interaction strength”; in the assay with SYNE4, Q8N205-2, “with no effect”; in the assay with smim3_human SMIM3 [4], “with no effect”.
With “Voltage-dependent L-type calcium channel subunit beta-4 (Homo sapiens) (from UniProt O00305) R468Q”, the “effect of a mutation on the interaction” value with efhc2_human EFHC2 is listed as “with no effect”.
The same measure, in the same setting: in the case of “Voltage-dependent L-type calcium channel subunit beta-4 (Homo sapiens) (from UniProt O00305) C104F” it was “with no effect”.
Consider “Actin, cytoplasmic 1 (Homo sapiens) (from UniProt P60709) E364K”, for which the “effect of a mutation on the interaction” value with cof2_human CFL2 [5] and in the assay with cap2_human CAP2 [6] was “disrupting interaction strength” each time.
Turning to “Carbonic anhydrase 1 (Homo sapiens), P00915 R247H”, the “effect of a mutation on the interaction” value in the assay with tfcp2_human TFCP2 is given as “with no effect”.
Turning to “Tropomyosin alpha-1 chain (Homo sapiens), P09493-10 E40K”, the “effect of a mutation on the interaction” value is “with no effect” in the assay with ifit3_human IFIT3 [7]; “with no effect” with CAGE1, Q8TC20-4; “with no effect” with syce1_human SYCE1; “causing an interaction” with ifit3_human IFIT3 [8]; “with no effect” in the assay with md1l1_human MAD1L1; “disrupting interaction strength” with goga2_human GOLGA2. The “effect of a mutation on the interaction” value was “with no effect” with tfpt_human TFPT; “with no effect” with TNNT1, P13805-3; “with no effect” with kxdl1_human KXD1.
With “Actin, cytoplasmic 2 (Homo sapiens) (from UniProt P63261) P264L”, the figures for the “effect of a mutation on the interaction” value in the assay with cap2_human CAP2 [9], with cof2_human CFL2 [10] and with cap2_human CAP2 [11] were “with no effect”, “disrupting interaction strength” and “causing an interaction”, respectively.
As to “Actin, cytoplasmic 2 (Homo sapiens) (from UniProt P63261) T89I”, the “effect of a mutation on the interaction” value with cap2_human CAP2 [9] is “with no effect”; with cof2_human CFL2 [10], “with no effect”; with cap2_human CAP2 [11], “causing an interaction”.
As for “Erythroid transcription factor (Homo sapiens), P15976-2 V205M”, the “effect of a mutation on the interaction” value is given as “with no effect” with mdfi_human MDFI, “with no effect” with kra32_human KRTAP3-2, “disrupting interaction strength” in the assay with lzts2_human LZTS2 and “with no effect” with trip6_human TRIP6.
